This passage reports binding signal (% of ligTRE(s)6 crosslinking), binding result and binding signal results from patent publication US5683985, “Oligonucleotide decoys and methods relating thereto” (The Salk Institute for Biological Studies).

One series concerns the target JUN (UniProt P05412). Conditions: PS at 6 linkages within the Sp1 recognition octamer; K2PtCl4 crosslinking, SDS gel.
For series [1], the target named is T1, CREB (CRE-BP) (UniProt P15337 P15337:1-327). Description: EMSA; 50 mM KCl, 15 mM Tris pH 7.5, room temperature. Conditions: chain copies: 2, label: 5'-32P. How it is done:
(§1) Binding of the ligated CRE and CRE(s)_6 sequences to the CREB protein was carried out as previously described [Dwarki et al., EMBO J. 9:225–232 (1990); chu and Orgel, Nucleic Acids Res. 19:6958 (1991)]. Approximately 0.015 pmole of the [^32P]-CRE sequences was added to ~200 ng of pure CREB protein in 10 µl of buffer containing 50 mM KCl, 15 mM Tris, (pH 7.5), 0.1 mM EDTA, 0.5 mM DTT, 180 ng acetylated BSA and 250 ng (poly[dI-dC].poly[dI-dC]) and then incubated at room temperature for 15–20 minutes. Binding was detected by gel shift assay on 6% non-denaturing gels using 40 mM Tris-borate at pH 8.2 as the electrophoresis buffer. Binding of the ligated CRE sequences to an aliquot of nuclear extract from PC12 cells (4 μg total protein) was carried out in the same way. Binding of TRE sequences to the JUN protein was carried out similarly in 10 μl of buffer containing 50 mM Tris (pH 7.9), 100 mM KCl, 1 mM EDTA, 1 mM DTT, 12.5 mM MgCl_2, 20% glycerol and 250 ng (poly[dI-dC]·poly[dI-dC]). Binding was detected by non-denaturing gel electrophoresis on 6% acrylamide, using 20 mM Tris-borate (pH 8.2) as electrophoresis buffer.
In general terms: In EMSA bound probe runs differently from free probe, usually more slowly.

Series [2] deals with T1, CREB (CRE-BP). Description: EMSA; PS does not diminish binding; K2PtCl4 crosslinking 40-50% of binding at 2.3 mM. Conditions: chain copies: 2; label: 32P; closed circular dumbbell. On the procedure: (§2) Binding of the ligated CRE and CRE(s)_6 sequences to the CREB protein was carried out as previously described [Dwarki et al., EMBO J. 9:225–232 (1990); chu and Orgel, Nucleic Acids Res. 19:6958 (1991)]. Approximately 0.015 pmole of the [^32P]-CRE sequences was added to ~200 ng of pure CREB protein in 10 µl of buffer containing 50 mM KCl, 15 mM Tris, (pH 7.5), 0.1 mM EDTA, 0.5 mM DTT, 180 ng acetylated BSA and 250 ng (poly[dI-dC].poly[dI-dC]) and then incubated at room temperature for 15–20 minutes. Binding was detected by gel shift assay on 6% non-denaturing gels using 40 mM Tris-borate at pH 8.2 as the electrophoresis buffer. Binding of the ligated CRE sequences to an aliquot of nuclear extract from PC12 cells (4 μg total protein) was carried out in the same way. Binding of TRE sequences to the JUN protein was carried out similarly in 10 μl of buffer containing 50 mM Tris (pH 7.9), 100 mM KCl, 1 mM EDTA, 1 mM DTT, 12.5 mM MgCl_2, 20% glycerol and 250 ng (poly[dI-dC]·poly[dI-dC]). Binding was detected by non-denaturing gel electrophoresis on 6% acrylamide, using 20 mM Tris-borate (pH 8.2) as electrophoresis buffer. […]

Series [3] concerns the target T1, CREB (CRE-BP). Description: EMSA; bound more efficiently than the other oligomers; 50 mM KCl, pH 7.5. Conditions: chain copies: 2; label: 32P; closed circular dumbbell. On the procedure:
as §1

Series [4] concerns the target T1, CREB (CRE-BP). Description: EMSA; does not bind CREB; crosslinking <10% of CRE at 2 mM K2PtCl4, none at 0.3 mM. Conditions: chain copies: 2; label: 32P; closed circular dumbbell. On the procedure: as §2
The target in series [5] is T1, CREB (CRE-BP). Description: EMSA; crosslinks with K2PtCl4 at ~40% of ligCRE(s)6 efficiency. Conditions: chain copies: 2; label: 32P; closed circular dumbbell. How it is done: For crosslinking of oligonucleotide to protein, approximately 0.015 pmole of the appropriate [^32P]-labelled dumbbell oligonucleotide was first incubated with 200 ng CREB or JUN protein in 10 μl of buffer containing 50 mM KCl, 15 mM Tris (pH 7.5), 0.1 mM EDTA, […], 180 ng acetylated BSA and 250 ng (poly[dI-dC]·poly[dI-dC]) as described above. After 15 minutes at room temperature, 1–3 μl of a freshly prepared solution containing the required amount of K_2PtCl_4 or transPt^II in buffer containing 1 mM phosphate (pH 7) and 0.1 mM EDTA was added to the reaction mixture. Incubation was continued at room temperature in the dark for 1 hour. 0.5 μl of a 5% solution of SDS was then added and the crosslinked product separated from non-crosslinked oligonucleotide on an 8% polyacrylamide gel using buffer containing 90 mM Tris-borate (pH 8.2) and 0.1% SDS (SDS gels disrupt noncovalently associated DNA-protein complexes).

A value given as a limit tells only on which side of the number the result lay.

T1 sequence (P15337 whole entry, one chain of several): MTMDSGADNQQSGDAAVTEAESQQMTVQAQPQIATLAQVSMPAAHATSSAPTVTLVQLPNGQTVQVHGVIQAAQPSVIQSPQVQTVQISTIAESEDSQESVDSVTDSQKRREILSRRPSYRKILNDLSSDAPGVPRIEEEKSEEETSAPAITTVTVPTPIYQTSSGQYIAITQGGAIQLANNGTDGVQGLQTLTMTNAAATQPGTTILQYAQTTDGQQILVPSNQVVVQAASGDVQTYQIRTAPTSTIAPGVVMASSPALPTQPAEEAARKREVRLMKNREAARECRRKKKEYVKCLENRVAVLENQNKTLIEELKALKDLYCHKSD
Sequence of JUN (P05412 whole entry): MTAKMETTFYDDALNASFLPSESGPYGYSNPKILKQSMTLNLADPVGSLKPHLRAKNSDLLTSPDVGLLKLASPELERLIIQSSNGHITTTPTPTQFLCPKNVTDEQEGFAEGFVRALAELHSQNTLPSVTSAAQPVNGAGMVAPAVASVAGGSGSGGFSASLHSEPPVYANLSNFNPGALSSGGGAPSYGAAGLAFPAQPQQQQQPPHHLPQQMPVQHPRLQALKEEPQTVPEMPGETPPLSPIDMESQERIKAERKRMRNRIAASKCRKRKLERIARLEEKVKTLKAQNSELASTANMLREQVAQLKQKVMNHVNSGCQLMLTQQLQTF

As to “CCTCTCGCTCGCCCCGCCCCGATCCTCTCGATCGGGGCGGGGCGAG [ligSp1(s)6 dumbbell]”, the binding signal (% of ligTRE(s)6 crosslinking) with JUN is under 10.

B1: CRE 18-mer duplex (dsDNA)
DNA 1: AAATTGACGTCATGGTAA
DNA 2: TTACCATGACGTCAATTT
B1: in the series with CREB (CRE-BP) [1], the binding result was “binds”.

Turning to GTAACTCTCTTACCATGACGTCAATTTCTCTCAAATTGACGTCATG (structured_DNA) [CRE 46-mer nicked dumbbell], the binding result with CREB (CRE-BP) [1] (nicked dumbbell) was “binds”.

GTAACTCTCTTACCATGACGTCAATTTCTCTCAAATTGACGTCATG (structured_DNA, PS at 6 linkages within the octamer (T(s)GAC(s)GTC(s)A on both strands)) [ligCRE(s)6 dumbbell]: in the series with CREB (CRE-BP) [2], the binding result is “binds”. As for GTAACTCTCTTACCATGACGTCAATTTCTCTCAAATTGACGTCATG (structured_DNA) [ligCRE dumbbell], in the series with CREB (CRE-BP) [3], the binding result is reported as “binds”. On to AAATTGACGTCATGGTAACTCTCTTACCATGACGTCAATTT (structured_DNA) [CRE 41-mer hairpin], for which the binding result with CREB (CRE-BP) [1] (hairpin with CTCTC loop) is “binds”.

On to CCTCTCGCTCGCCCCGCCCCGATCCTCTCGATCGGGGCGGGGCGAG (structured_DNA, PS at 6 linkages within the Sp1 recognition octamer) [ligSp1(s)6 dumbbell], for which the binding result in the series with CREB (CRE-BP) [4] is “no binding”. As to ACTCTCTGTGTCTGACTCATGCTCTCTCAGCATGAGTCAGACAC (structured_DNA, PS at 6 linkages within the recognition sequence) [ligTRE(s)6 dumbbell], in the series with CREB (CRE-BP) [5], the binding signal was ~0.1 fold of ligCRE(s)6.
